Results: patent publication US20180105569A1 (INDIANA UNIVERSITY RESEARCH AND TECHNOLOGY, published 2018)
Numbered stars: 1 amine (or outer) side, 2 acyl side, 3 side chain; on linkers, the order of the positions; unused ones are H or OH. Square brackets hold non-standard residues; d marks the D form. Side chains are listed from the residue outwards. * marks the point of attachment. γGlu = O=C(O)[C@H](CCC(=O)[*:2])N[*:1]; Palmitoyl = CCCCCCCCCCCCCCCC(=O)*

T1: GIP receptor (UniProt P48546 22-466, limits assumed)
T1 sequence (looked up): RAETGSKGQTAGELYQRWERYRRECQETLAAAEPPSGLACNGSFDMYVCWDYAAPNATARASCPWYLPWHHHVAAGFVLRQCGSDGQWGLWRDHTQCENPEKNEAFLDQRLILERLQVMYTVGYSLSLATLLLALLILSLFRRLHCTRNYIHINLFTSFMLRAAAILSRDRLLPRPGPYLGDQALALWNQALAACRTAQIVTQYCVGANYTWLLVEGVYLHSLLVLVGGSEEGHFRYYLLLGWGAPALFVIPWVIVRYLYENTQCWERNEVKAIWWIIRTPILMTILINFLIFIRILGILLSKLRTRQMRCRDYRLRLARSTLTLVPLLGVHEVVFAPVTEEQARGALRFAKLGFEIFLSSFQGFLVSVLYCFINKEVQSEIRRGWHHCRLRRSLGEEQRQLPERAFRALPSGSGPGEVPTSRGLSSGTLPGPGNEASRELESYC

B1: peptide of SEQ ID NO: 146 (peptide)
peptide: Ac-[dY]AQGTFTSDK([γGlu-Palmitoyl])SKYLDERAAQDFVQWLLEAGPSSGAPPPS-NH2
SMILES: CCCCCCCCCCCCCCCC(=O)N[C@@H](CCC(=O)NCCCC[C@H](NC(=O)[C@H](CC(=O)O)NC(=O)[C@H](CO)NC(=O)[C@@H](NC(=O)[C@H](Cc1ccccc1)NC(=O)[C@@H](NC(=O)CNC(=O)[C@H](CCC(N)=O)NC(=O)[C@H](C)NC(=O)[C@@H](Cc1ccc(O)cc1)NC(C)=O)[C@@H](C)O)[C@@H](C)O)C(=O)N[C@@H](CO)C(=O)N[C@@H](CCCCN)C(=O)N[C@@H](Cc1ccc(O)cc1)C(=O)N[C@@H](CC(C)C)C(=O)N[C@@H](CC(=O)O)C(=O)N[C@@H](CCC(=O)O)C(=O)N[C@@H](CCCNC(=N)N)C(=O)N[C@@H](C)C(=O)N[C@@H](C)C(=O)N[C@@H](CCC(N)=O)C(=O)N[C@@H](CC(=O)O)C(=O)N[C@@H](Cc1ccccc1)C(=O)N[C@H](C(=O)N[C@@H](CCC(N)=O)C(=O)N[C@@H](Cc1c[nH]c2ccccc12)C(=O)N[C@@H](CC(C)C)C(=O)N[C@@H](CC(C)C)C(=O)N[C@@H](CCC(=O)O)C(=O)N[C@@H](C)C(=O)NCC(=O)N1CCC[C@H]1C(=O)N[C@@H](CO)C(=O)N[C@@H](CO)C(=O)NCC(=O)N[C@@H](C)C(=O)N1CCC[C@H]1C(=O)N1CCC[C@H]1C(=O)N1CCC[C@H]1C(=O)N[C@@H](CO)C(N)=O)C(C)C)C(=O)O

What follows are binders tested against glucagon receptor (UniProt P47871 26-477, limits assumed) (assay: cell-based or functional assay).
glucagon receptor, sequence (P47871 26-477 limits assumed): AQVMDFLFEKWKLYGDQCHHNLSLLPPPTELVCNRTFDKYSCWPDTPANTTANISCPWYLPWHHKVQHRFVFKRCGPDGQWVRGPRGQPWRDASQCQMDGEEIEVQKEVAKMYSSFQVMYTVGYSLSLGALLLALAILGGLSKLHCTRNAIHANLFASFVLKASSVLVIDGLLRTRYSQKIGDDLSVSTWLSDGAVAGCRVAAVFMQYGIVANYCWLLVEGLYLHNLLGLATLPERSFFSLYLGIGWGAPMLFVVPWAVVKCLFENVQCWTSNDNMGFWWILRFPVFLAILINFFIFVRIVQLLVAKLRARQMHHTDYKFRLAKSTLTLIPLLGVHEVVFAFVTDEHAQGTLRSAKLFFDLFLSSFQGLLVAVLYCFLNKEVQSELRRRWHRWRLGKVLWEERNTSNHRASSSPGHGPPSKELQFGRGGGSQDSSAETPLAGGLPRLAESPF

| Binder | EC50 at Glucagon Receptor (cAMP luciferase reporter, HEK293) |
| --- | --- |
| Ac-[dY]AQGTFTSDK([γGlu-Palmitoyl])SKYLDERAAQDFVQWLLDLGPSSGAPPPS-NH2 [peptide of SEQ ID NO: 153] | 21 pM |
| Ac-[dH]AQGTFTSDYSKYLDERAAQDFVQWLLEGGPSSGAPPPSK([γGlu-γGlu-Palmitoyl])G-NH2 [peptide of SEQ ID NO: 152] | 3 pM |
| B1 | 9 pM |

The binders below were run against GLP-1 receptor (UniProt P43220 24-463, limits assumed) (assay: cell-based or functional assay).

| Binder | EC50 at GLP-1 Receptor (cAMP luciferase reporter, HEK293) |
| --- | --- |
| Ac-[dY]AQGTFTSDK([γGlu-Palmitoyl])SKYLDERAAQDFVQWLLDLGPSSGAPPPS-NH2 [peptide of SEQ ID NO: 153] | 17 pM |
| Ac-[dH]AQGTFTSDYSKYLDERAAQDFVQWLLEGGPSSGAPPPSK([γGlu-γGlu-Palmitoyl])G-NH2 [peptide of SEQ ID NO: 152] | 3 pM |
| B1 | 7 pM |

Each binder was assayed against T1, GIP receptor (assay: cell-based or functional assay).

| Binder | EC50 at GIP Receptor (cAMP luciferase reporter, HEK293) |
| --- | --- |
| Ac-[dY]AQGTFTSDK([γGlu-Palmitoyl])SKYLDERAAQDFVQWLLDLGPSSGAPPPS-NH2 [peptide of SEQ ID NO: 153] | 18 pM |
| Ac-[dH]AQGTFTSDYSKYLDERAAQDFVQWLLEGGPSSGAPPPSK([γGlu-γGlu-Palmitoyl])G-NH2 [peptide of SEQ ID NO: 152] | 17 pM |
| B1 | 6 pM |
